The target in test [1] is Synechococcus sp. phage S-ShM2 18 kDa small heat shock protein (HspSP-ShM2) (cyanophage S-ShM2 (Synechococcus sp. phage)). Put plainly: SEC; Superdex 200 Increase 10/300 GL, TEN buffer (50 mM Tris-HCl pH 8.0, 0.1 mM EDTA, 150 mM NaCl) without detergent, room temperature, 0.5 ml/min; HspSP-ShM2 alone at 30 and 60 uM (the ~200 kDa species only at 60 uM); masses from a standard curve. Background: SEC sorts molecules by how far they enter the pores of the column.

For test [2], the target named is citrate synthase (UniProt P00889).
Test [3] addresses luciferase [luciferase: P08659].
Test [4] concerns the target citrate synthase (UniProt P00889). The source holds these as a separate data set.
A further test addresses malate dehydrogenase (UniProt P00346).

As a reminder, the stoichiometry N is the number of molecules, sites or subunits per partner or assembly.

UniProt P00889, sequence (P00889 28-464): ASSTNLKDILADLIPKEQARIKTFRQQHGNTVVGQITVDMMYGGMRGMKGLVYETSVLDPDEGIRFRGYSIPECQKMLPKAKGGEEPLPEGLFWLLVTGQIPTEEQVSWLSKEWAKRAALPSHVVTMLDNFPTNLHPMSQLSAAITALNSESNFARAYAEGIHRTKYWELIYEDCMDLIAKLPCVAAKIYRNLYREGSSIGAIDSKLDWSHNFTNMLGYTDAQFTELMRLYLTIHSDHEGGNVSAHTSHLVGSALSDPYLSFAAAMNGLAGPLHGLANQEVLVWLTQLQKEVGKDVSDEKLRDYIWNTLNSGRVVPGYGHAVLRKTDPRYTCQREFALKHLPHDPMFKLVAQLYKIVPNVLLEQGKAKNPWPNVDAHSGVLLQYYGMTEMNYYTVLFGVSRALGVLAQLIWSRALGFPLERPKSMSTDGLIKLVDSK
UniProt P00346, sequence (P00346 25-338): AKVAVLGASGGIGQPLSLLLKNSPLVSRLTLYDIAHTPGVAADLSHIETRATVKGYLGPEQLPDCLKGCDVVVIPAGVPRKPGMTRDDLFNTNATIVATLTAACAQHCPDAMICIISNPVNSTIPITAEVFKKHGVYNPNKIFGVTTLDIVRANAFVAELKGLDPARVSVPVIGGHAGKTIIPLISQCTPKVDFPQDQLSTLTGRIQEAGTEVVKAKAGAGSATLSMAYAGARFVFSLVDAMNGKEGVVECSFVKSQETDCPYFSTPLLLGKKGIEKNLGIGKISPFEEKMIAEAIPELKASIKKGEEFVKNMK

Regarding “Synechococcus sp. phage S-ShM2 18 kDa small heat shock protein (HspSP-ShM2) (natural protein)”, the stoichiometry N in test [1] turned out to be 12. For the same substance, the decrease of the ability to prevent heat-induced aggregation of CS in the presence of 0.23 mM Triton X-100, at 5:1 and 10:1 HspSP-ShM2:CS (20% and 12%) with citrate synthase [2] was 20%. The substance also returned a percent of heat-induced aggregation of Luc (light scattering at 320 nm, 30 min at 42°C, Luc alone = 100%) at 6:1 and 12:1 HspSP-ShM2:Luc (45.8 and 6.4%) in test [3] of 45.8%. This substance also showed a percent of heat-induced aggregation of CS (light scattering at 320 nm, 90 min at 45°C, CS alone = 100%) at 5:1 and 10:1 HspSP-ShM2:CS (41.6 and 8.17%) with citrate synthase [4] of 41.6%. Moreover, the percent of heat-induced aggregation of MDH (light scattering at 320 nm, 90 min at 45°C, MDH alone = 100%) at 6:1 and 12:1 HspSP-ShM2:MDH (26.9 and 6.5%) in the test with malate dehydrogenase is 26.9%.

These data come from PMC5028025.
